# Data as given in PMC5898484, “Two Differential Binding Mechanisms of FG-Nucleoporins and Nuclear Transport Receptors” (Cell Reports, 2018).
# B1: FG-Nup214 (FG domain of Nup214), double-labelled for FRET (domain or fragment)
# chain: ATTTSVAPPAATSTSSTAVFGSLPVTSAGSSGVISFGGTSLSAGKTSFSFGSQQTNSTVPPSAPPPTTAATPLPTSFPTLSFGSLLSSATTPSLPMSAGRSTEEATSSALPEKPGDSEVSASAASLLEEQQSAQLPQAPPQTSDSVKKEPVLAQPAVSNSGTAASSTSLVALSAEATPATTGVPDARTEAVPPASSFSVPGQTAVTAAAISSAGPVAVETSSTPIASSTTSIVAPGPSAEAAAFGTVTSGSSVFAQPPAASSSSAFNQLTNNTATAPSATPVFGQVAASTAPSLFGQQTGSTASTAAATPQVSSSGFSSPAFGTTAPGVFGQTTFGQASVFGQSASSAASVFSFSQPGFSSVPAFGQPASSTPTSTSGSVFGAASSTSSSSSFSFGQSSPNTGGGLFGQSNAPAFGQSPGFGQGGSVFGGTSAATTTAATSGFSFCQASGFGSSNTGSVFGQAASTGGIVFGQQSSSSSGSVFGSGNTGRGGGFFSGLGGKPSQDAANKNPFSCASGGFGSTATSNTSNLFGNSGAKTFGGFASSSFGEQKPTGTFSSGGGSVASQGFGFSSPNKTGGFGAAPVFGSPPTFGGSPGFGGVPAFGSAPAFTSPLGSTGGKVFGEGTAAASAGGFGFGSSSNTTSFGTLASQNAPTFGSLSQQTSGFGTQSSGFSGFGSGTGGFSFGSNNSSVQGFGGWRS
# modifications: Alexa594-maleimide (acceptor) on the Cys introduced at 1,905; p-acetylphenylalanine (AcF) at 2,043 labelled with Alexa488-hydroxylamine (donor)
# Experiments:
# [1] = target: FG-Nup214^Glc labelled for stopped-flow kinetics; test: stopped-flow fluorescence anisotropy; association under pseudo-first order conditions (>10-fold excess of the NTR); kobs from single exponential fits, kon from the slope of kobs versus NTR concentration; excitation 532 nm
# [2] = target: FG-Nup214 labelled for stopped-flow anisotropy; test: as above
# [3] = target: FG-Nup214 labelled for stopped-flow anisotropy; test: stopped-flow fluorescence, dissociation; preformed FG-Nup⋅NTR complex rapidly mixed with 100× (2 μM) excess of unlabeled FG-Nup
# [4] = target: FG-Nup214^117 (117-aa fragment of FG-Nup214), wild type, labelled for FRET; test: single-molecule FRET (smFRET) titration; fractions of bound (low E_FRET) and unbound (high E_FRET) FG-Nup214^117 as a function of CRM1 concentration, with 1 μM RanGTP
# [5] = target: FG-Nup214^117 proline triple mutant A1927P/A2017P/A2019P; test: as above
# [6] = target: FG-Nup214^117 proline double mutant A1927P/A2017P; test: as above
# [7] = target: FG-Nup153 labelled for stopped-flow kinetics; test: stopped-flow fluorescence, dissociation; preformed FG-Nup⋅NTR complex rapidly mixed with 100× (2 μM) excess of unlabeled FG-Nup
# [8] = target: FG-Nup153^Glc labelled for stopped-flow kinetics; test: stopped-flow fluorescence anisotropy; association under pseudo-first order conditions (>10-fold excess of the NTR); kobs from single exponential fits, kon from the slope of kobs versus NTR concentration; excitation 532 nm
# [9] = target: T1, CRM1 (export receptor, exportin) (UniProt O14980 1-1071); test: stopped-flow fluorescence (donor signal of a FRET-labelled sample); association; donor signal change of FRET-labelled FG-Nup214 instead of anisotropy; settings: both partners purified
# T1 construct: exportin CRM1; Construct details in the Supplemental Experimental Procedures; also called exportin CRM1
# T1 sequence (O14980 whole entry): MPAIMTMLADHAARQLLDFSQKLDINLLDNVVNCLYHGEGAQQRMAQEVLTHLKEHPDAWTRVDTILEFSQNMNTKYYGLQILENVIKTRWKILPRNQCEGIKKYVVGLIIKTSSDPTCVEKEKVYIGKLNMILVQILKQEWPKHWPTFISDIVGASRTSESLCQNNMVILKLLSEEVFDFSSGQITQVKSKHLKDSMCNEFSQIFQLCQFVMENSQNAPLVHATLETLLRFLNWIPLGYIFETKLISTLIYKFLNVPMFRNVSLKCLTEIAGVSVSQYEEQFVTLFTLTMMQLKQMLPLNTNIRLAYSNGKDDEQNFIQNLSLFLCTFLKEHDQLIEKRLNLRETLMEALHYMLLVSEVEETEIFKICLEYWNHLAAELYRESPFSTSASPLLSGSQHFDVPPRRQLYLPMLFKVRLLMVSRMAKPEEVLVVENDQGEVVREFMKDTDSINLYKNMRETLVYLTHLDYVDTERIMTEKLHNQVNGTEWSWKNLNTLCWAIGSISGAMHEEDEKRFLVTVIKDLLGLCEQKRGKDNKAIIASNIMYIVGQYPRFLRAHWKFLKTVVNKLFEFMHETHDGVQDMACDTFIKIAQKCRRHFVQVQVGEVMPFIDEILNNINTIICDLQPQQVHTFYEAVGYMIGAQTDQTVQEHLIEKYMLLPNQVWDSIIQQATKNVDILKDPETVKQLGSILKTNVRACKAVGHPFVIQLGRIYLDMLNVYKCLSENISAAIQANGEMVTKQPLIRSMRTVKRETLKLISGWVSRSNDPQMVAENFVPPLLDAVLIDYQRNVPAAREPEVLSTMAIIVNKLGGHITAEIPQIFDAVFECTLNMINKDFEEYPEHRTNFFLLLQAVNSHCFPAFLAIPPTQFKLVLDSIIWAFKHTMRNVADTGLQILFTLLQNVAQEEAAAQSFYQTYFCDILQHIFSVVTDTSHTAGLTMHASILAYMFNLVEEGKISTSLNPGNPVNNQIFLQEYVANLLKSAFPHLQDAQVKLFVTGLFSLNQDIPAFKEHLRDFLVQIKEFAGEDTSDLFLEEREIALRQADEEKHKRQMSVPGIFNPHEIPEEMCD
molecule,measurement,setting,value
"CRM1 (export receptor, exportin) (from UniProt O14980 1-1071)",kon,[1],3.8e+07 M⁻¹ s⁻¹
same,kon,[2],4e+07 M⁻¹ s⁻¹
CRM1⋅RanGTP complex (from UniProt O14980 1-1071; P62826 1-216),complex half-life,[3],5 s
same,koff,[3],0.14 s⁻¹
same,kon,[1],1.3e+07 M⁻¹ s⁻¹
same,kon,[2],2.1e+07 M⁻¹ s⁻¹
same,Kd,[4],35 nM
same,Kd,[5],222 nM
same,Kd,[6],53 nM
Importinβ (import receptor) (from UniProt Q14974 1-876),complex half-life,[7],0.08 s
same,koff,[7],8.7 s⁻¹
same,kon,[8],8.5e+08 M⁻¹ s⁻¹
B1,kon,[9],3e+07 M⁻¹ s⁻¹
